# According to paper PMC6189472:
# Tests used:
# [1] = molecular target: TCR/CD3 complex (human (endogenous in Jurkat)) (UniProt P07766); assay: recruitment to antibody-coated beads (confocal microscopy); CD6-GFP Jurkat T cells on fibronectin-coated coverslips with 4.5 um anti-CD3-coated (Dynal CD3) or fibronectin-coated beads; live cells at RT; CD6-GFP intensity at bead contact against the opposite side of the cell
# [2] = molecular target: TCR/CD3 complex (human (endogenous in Jurkat)) (UniProt P07766); assay: FRAP on micropatterned antibody spots; CD6-GFP Jurkat T cells on spots of 100, 10 or 1% anti-CD3 surrounded by fibronectin; 37 C; circular ROI of 2.1 um on spots and on surrounding fibronectin; single exponential fit
# Sequence of UniProt P07766 (P07766 whole entry, looked up, one chain of several): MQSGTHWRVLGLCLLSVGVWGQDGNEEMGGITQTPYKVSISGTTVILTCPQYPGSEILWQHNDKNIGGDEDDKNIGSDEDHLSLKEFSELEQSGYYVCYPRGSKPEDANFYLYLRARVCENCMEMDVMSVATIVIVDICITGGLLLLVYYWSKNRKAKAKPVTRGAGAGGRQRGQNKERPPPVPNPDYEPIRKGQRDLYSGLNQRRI
binder,measurement,setting,value
CD6-GFP (receptor) HPSPAPPDQLNTSSAESELWEPGERLPVRLTNGSSSCSGTVEVRLEASWEPACGALWDSRAAEAVCRALGCGGAEAASQLAPPTPELPPPPAAGNTSVAANATLAGAPALLCSGAEWRLCEVVEHACRSDGRRARVTCAENRALRLVDGGGACAGRVEMLEHGEWGSVCDDTWDLEDAHVVCRQLGCGWAVQALPGLHFTPGRGPIHRDQVNCSGAEAYLWDCPGLPGQHYCGHKEDAGAVCSEHQSWRLTGGADRCEGQVEVHFRGVWNTVCDSEWYPSEAKVLCQSLGCGTAVERPKGLPHSLSGRMYYSCNGEELTLSNCSWRFNNSNLCSQSLAARVLCSASRSLHNLSTPEVPASVQTVTIESSVTVKIENKESRELMLLIPSIVLGILLLGSLIFIAFILLRIKGKYALPVMVNHQHLPTTIPAGSNSYQPVPITIPKEVFMLPIQVQAPPPEDSDSGSDSDYEHYDFSAQPPVALTTFYNSQRHRVTDEEVQQSRFQMPPLEEGLEELHASHIPTANPGHCITDPPSLGPQYHPRSNSESSTSSGEDYCNSPKSKLPPWNPQVFSSERSSFLEQPPNLELAGTQPAFSAGPPADDSSSTSSGEWYQNFQPPPQPPSEEQFGCPGSPSPQPDSTDNDDYDDISAA,fold enrichment at αCD3-coated beads against fibronectin-coated beads,[1],3 fold
same,fraction of CD6-GFP immobilized on 10 and 100% αCD3 spots,[2],30%
